Measurements from patent US20210024645A1 (HANGZHOU SUMGEN BIOTECH, published 2021).

Target: CD38 protein on the surfaces of Raji cells, Daudi cells, Ramos cells and RPMI8226 cells (human, UniProt P28907 1-300)
Experiment: cell-based or functional assay

ADCC activity, EC50 (Daudi target cells, NK92MI-CD16a effector cells, LDH release): 0.72 ng/mL
ADCC activity, EC50 (RPMI8226 target cells, NK92MI-CD16a effector cells, LDH release): 1.46 ng/mL
ADCC activity, EC50 (Raji target cells, NK92MI-CD16a effector cells, LDH release): 6.97 ng/mL
B1: antibody SG003 (antibody, human IgG1, kappa, V domains shown)
VH: QVQLLESGGGLVQPGGSLKLSCVASGFDFSLYWMNWVRQAPGKGLEWIGKINPDSSTINYTPSLKDKFFISRDNAKNTLYLQMTKVRSEDTALYYCARLWIATGGFDYWGQGTTLTVSS
VL: EIVMTQSPASLSASLGQRATISCRASSSVSSSAFSYVHWYQQKSGQPPKLLIYLASNLESGVPARFSGSGSGTDFTLTIHPVESEDVATYYCHHSRELPFTFGSGTKLEIKR
